B1: PLAGL1 (parent)
chain: TKEKKHQCDHCERCFYTRKDVRRH

Variants of: B1
Assay: protein stability index of a GFP-peptide fusion (GPS, HEK-293T) (PSI 1-6); higher = more stable
Conditions: c terminus: a fixed tail appended
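Note: lentivirally expressed fusions sorted by FACS into six bins by GFP to DsRed ratio, PSI derived from sequencing read proportions per bin multiplied by bin number.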

Protein stability index of substitutions, site by site:
T1: A 3.1; C 3.75; D 3.04; E 3.82; F 3.1; G 3.68; H 3.12; I 3.57; K 3.59; L 3.34; M 3.39; N 3.38; P 3.48; Q 3.52; R 3.37; S 3.46; V 3.5; W 3.54; Y 3.31
K2: A 3.58; C 3.25; D 4.04; E 3.65; F 3.02; G 3.15; H 3.55; I 3.08; L 2.75; M 3.71; N 3.21; P 3.1; Q 3.67; R 3.77; S 3.39; T 3.67; V 3.3; W 3.16; Y 3.21
E3: A 3.31; C 4.51; D 3.49; F 3.29; G 3.45; H 3.55; I 3.01; K 3.5; L 3.14; M 3.53; N 3.59; P 3.63; Q 3.35; R 3.59; S 3.48; T 3.32; V 3.28; W 2.73; Y 3.12
K4: A 3.32; C 3.87; D 3.84; E 4.01; F 3.21; G 3.49; H 3.42; I 3.57; L 2.9; M 3.27; N 3.08; P 3.33; Q 3.4; R 3.29; S 2.93; T 3.27; V 3.24; W 2.95; Y 3.03
K5: A 3.78; C 2.59; D 3.53; E 3.67; F 3.22; G 3.04; H 3.82; I 3.13; L 3.67; M 3.81; N 3.03; P 3.67; Q 3.67; R 3.75; S 3.46; T 3.22; V 3.63; W 3.06; Y 3.19
H6: A 2.39; C 3.7; D 2.91; E 3.55; F 3.01; G 2.88; I 2.94; K 3.19; L 2.5; M 2.7; N 3.33; P 2.94; Q 3.08; R 2.95; S 2.88; T 2.86; V 2.67; W 2.51; Y 3.43
Q7: A 3.41; C 3.36; D 3.43; E 3.31; F 2.91; G 2.89; H 3.73; I 3.32; K 3.8; L 2.54; M 2.71; N 3.21; P 2.82; R 3.33; S 3.25; T 2.74; V 3.23; W 2.77; Y 2.81
C8: A 3.53; D 3.61; E 3.84; F 2.6; G 3.02; H 3.25; I 3.1; K 3.43; L 3.56; M 2.98; N 3.29; P 3.17; Q 3.53; R 3.42; S 3.48; T 3.24; V 3.12; W 2.75; Y 2.78
D9: A 2.67; C 3.14; E 3.32; F 2.31; G 3.66; H 3.02; I 2.53; K 3.24; L 2.98; M 3.5; N 4.02; P 3.11; Q 3; R 2.92; S 3.14; T 2.92; V 2.47; W 2.84; Y 2.46
H10: A 3.33; C 3.33; D 3.79; E 3.37; F 2.36; G 4.13; I 2.71; K 3.91; L 2.55; M 3.33; N 3.6; P 3.4; Q 3.47; R 3.41; S 3.68; T 3.37; V 3.37; W 2.67; Y 2.46
C11: A 3.62; D 3.96; E 4.31; F 3.27; G 3.61; H 3.31; I 3.65; K 3.86; L 3.71; M 3.57; N 3.39; P 3.98; Q 3.91; R 4.11; S 3.42; T 3.24; V 3.73; W 3.46; Y 3.22
E12: A 3.05; C 3.27; D 3.6; F 3.12; G 4.02; H 3.34; I 2.89; K 3.09; L 3; M 3.15; N 3.19; P 4.17; Q 3.15; R 3.15; S 3.03; T 3.15; V 3.24; W 2.69; Y 3.3
R13: A 3.77; C 3.39; D 3.79; E 3.66; F 3; G 3.25; H 3.87; I 2.62; K 3.54; L 3.27; M 3.26; N 3.81; P 2.75; Q 4.24; S 3.35; T 3.06; V 3.41; W 2.61; Y 2.63
C14: A 3.11; D 3.54; E 3.69; F 3.18; G 4.02; H 3.12; I 2.65; K 3.78; L 3.06; M 3.52; N 3.25; P 3.29; Q 3.41; R 3.16; S 3.28; T 3.6; V 3.42; W 3.65; Y 3.27
F15: A 3.79; C 2.83; D 2.98; E 3.61; G 2.83; H 3.46; I 3.62; K 3.94; L 3.9; M 4.05; N 3.48; P 3.06; Q 3.79; R 3.77; S 3.05; T 4.24; V 3.47; W 3.41; Y 3.48
Y16: A 4.02; C 3.74; D 4.12; E 4.19; F 3.58; G 3.79; H 3.46; I 3.18; K 3.14; L 3.4; M 3.75; N 4.2; P 3.13; Q 3.88; R 4; S 3.63; T 3.58; V 3.75; W 3.26
T17: A 3.6; C 4.01; D 3.61; E 3.81; F 4.01; G 3.05; H 3.29; I 3.01; K 3.4; L 3.77; M 3.26; N 3.7; P 3.1; Q 3.44; R 3.63; S 3.12; V 3.22; W 2.74; Y 3.09
R18: A 3.54; C 3.06; D 3.82; E 3.61; F 2.76; G 2.87; H 3.29; I 3.06; K 3.09; L 3.76; M 2.95

Source: the supplement of paper PMC10567573
